Source: patent US20040180823A1 (BURNHAM INSTITUTE, published 2004)
Ends that are not written are not given here.

Columns and labels:
[1] = molecular target: T1, histidine-tagged mouse EphA2 Fc fusion protein (R&D Systems) (mouse, UniProt Q03145 26-535, limits assumed); test: SPR (BIAcore 3000), EphA2 Fc coupled to chip, equilibrium binding
T1 construct: Bought; not shown: Fc portion and histidine tag

EphB4 Fc fusion protein = molecular target: T2, EphB4 Fc fusion protein; test: immobilized peptide capturing Eph receptor Fc (methods of Example 2)
T2 construct: Eph receptor Fc fusion
T2 sequence (P54761 16-539): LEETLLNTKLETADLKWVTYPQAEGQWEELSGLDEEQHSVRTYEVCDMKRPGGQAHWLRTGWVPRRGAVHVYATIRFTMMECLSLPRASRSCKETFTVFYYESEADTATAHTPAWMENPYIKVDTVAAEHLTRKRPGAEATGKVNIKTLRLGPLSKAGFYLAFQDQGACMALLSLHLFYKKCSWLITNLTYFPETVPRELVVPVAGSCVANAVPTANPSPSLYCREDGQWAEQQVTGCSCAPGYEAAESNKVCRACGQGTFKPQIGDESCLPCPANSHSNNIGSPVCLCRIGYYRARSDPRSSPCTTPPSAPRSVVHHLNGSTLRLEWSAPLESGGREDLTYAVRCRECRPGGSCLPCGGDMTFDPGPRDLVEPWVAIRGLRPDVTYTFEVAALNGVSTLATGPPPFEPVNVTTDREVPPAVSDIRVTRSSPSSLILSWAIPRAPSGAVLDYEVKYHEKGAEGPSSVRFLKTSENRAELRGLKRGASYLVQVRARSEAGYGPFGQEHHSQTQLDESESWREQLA
Excerpt: Bound Eph receptors were detected with anti-human Fc antibody conjugated to alkaline phosphatase (AP) (Promega, Madison, Wis.). […] Substrates were 2,2′-azino-bis(3-ethylbenzthiazoline-6-sulfonic acid) for horseradish peroxidase and p-nitrophenyl phosphate for AP.

T1 sequence (Q03145 26-535 limits assumed): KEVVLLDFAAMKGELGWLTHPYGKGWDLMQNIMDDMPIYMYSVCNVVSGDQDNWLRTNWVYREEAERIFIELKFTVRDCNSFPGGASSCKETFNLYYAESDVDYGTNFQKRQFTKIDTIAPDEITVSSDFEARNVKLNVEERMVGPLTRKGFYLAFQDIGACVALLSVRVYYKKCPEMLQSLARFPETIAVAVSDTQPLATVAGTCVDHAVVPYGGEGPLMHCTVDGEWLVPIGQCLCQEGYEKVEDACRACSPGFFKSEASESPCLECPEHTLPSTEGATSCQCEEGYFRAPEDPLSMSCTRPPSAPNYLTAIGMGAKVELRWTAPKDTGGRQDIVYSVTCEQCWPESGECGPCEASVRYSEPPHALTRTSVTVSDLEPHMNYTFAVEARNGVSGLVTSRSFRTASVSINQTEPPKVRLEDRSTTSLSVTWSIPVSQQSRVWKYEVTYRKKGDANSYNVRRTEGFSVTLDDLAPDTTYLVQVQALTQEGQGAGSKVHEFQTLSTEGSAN

Row | Kd [1] | fold more EphB4 bound compared to other EphB family receptors (EphB4 Fc fusion protein) | Binder
1 | 678 nM |  | SWLAYPGAVSYRGSGSK (also: biotinylated, position not given here) [SWL peptide (synthetic, biotinylated)]
2 |  | 4 fold | DALNDWLLFRPWGSGSK (also: biotinylated, position not given here) [DAL synthetic peptide (biotinylated)]
